Experimental findings from patent US20190071668 are described below.

The data set addresses T1, Androgen receptor (AR) (Homo sapiens?) (UniProt P10275).
T1 sequence: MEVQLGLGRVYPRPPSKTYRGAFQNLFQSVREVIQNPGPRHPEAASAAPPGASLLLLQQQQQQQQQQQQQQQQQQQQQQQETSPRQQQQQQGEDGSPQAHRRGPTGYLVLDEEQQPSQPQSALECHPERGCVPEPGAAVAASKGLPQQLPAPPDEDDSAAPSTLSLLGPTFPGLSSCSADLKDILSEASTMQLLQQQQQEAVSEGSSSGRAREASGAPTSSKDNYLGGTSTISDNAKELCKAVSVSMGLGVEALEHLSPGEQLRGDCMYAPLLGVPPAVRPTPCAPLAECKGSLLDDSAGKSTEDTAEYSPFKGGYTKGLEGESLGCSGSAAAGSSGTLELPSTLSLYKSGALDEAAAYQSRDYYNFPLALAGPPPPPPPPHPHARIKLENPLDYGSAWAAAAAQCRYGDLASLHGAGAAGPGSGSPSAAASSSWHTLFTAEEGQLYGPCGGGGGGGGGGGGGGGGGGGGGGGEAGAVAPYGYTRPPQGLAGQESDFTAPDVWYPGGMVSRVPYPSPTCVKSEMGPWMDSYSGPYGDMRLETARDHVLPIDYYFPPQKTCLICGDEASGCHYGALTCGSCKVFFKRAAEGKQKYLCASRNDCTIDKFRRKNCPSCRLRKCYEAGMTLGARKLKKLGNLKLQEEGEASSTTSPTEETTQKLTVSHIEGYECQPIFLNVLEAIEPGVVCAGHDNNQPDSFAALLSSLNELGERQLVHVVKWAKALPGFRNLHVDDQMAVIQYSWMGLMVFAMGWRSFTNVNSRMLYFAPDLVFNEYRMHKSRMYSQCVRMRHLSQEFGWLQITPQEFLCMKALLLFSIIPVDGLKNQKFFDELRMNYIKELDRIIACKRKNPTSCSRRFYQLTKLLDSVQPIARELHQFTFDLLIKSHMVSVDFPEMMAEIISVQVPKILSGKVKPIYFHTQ
As to the kind of experiment: pulldown. Conditions: RIP; not significantly above background SLNCR.

For SLNCR1 delta 568-637, the binding signal (fold enrichment) amounted to 14.
